The target in data set [1] is T1, kemptide LRRASLG (Promega).
T1 chain: LRRASLG

The target of data set [2] is T2, CKII substrate RRADDSDDDDD (Calbiochem).
T2 chain: RRADDSDDDDD

In data set [3] the target is T3, Syntide-2 substrate PLARTLSVAGLPGKK (Calbiochem).
T3 chain: PLARTLSVAGLPGKK

Data set [4] has as its target T4, CKII substrate RRREEETEEE (New England Biolabs).
T4 chain: RRREEETEEE

Data set [5] addresses T5, CKI phosphopeptide substrate KRRRALS(p)VASLPGL (New England Biolabs).
T5 chain: KRRRALSVASLPGL

For a further data set, the target named is T6, β-casein (Sigma), P02666.
T6 chain: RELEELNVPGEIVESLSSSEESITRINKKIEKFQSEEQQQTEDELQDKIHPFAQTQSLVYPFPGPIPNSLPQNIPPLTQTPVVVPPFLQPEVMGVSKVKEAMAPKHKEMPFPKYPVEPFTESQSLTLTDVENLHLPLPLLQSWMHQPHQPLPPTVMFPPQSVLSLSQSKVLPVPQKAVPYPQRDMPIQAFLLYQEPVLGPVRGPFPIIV

The target in data set [6] is T7, CKI substrate peptide RRKDLHDDEEDEAMSITA (Calbiochem).
T7 chain: RRKDLHDDEEDEAMSITA

The target of data set [7] is T8, CaM kinase II substrate (281-291) MHKNETVECLK (Calbiochem).
T8 chain: MHKNETVECLK

Data set [8] concerns the target T9, partially dephosphorylated α-casein (Sigma), P02662.
T9 chain: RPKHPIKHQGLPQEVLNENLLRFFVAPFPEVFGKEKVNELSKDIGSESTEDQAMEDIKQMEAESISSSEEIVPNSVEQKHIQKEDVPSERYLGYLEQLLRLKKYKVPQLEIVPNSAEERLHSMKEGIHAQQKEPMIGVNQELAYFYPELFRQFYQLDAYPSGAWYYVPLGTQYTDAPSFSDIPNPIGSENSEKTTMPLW

Data set [9] deals with T10, CKI substrate DDDEESITRR (Promega).
T10 chain: DDDEESITRR

B1: FLAGTgCKIβ, N-terminal FLAG epitope tagged Toxoplasma gondii casein kinase I beta (protein)
chain: AHHQDTRNHTGVGPSSSIPLKDLKIAGVWKIGRKIGSGSFGDIYKGLNSQTGQEVALKVESTKAKHPQLLYEYKLLKHLQGGTGIAQVFCCETAGDHNIMAMELLGPSLEDVFNLCNRTFSLKTILLLADQFLQRVEYIHSKNFIHRDIKPDNFLLGGAGNQNTIYVIDFGLAKKFRDPKTHQHIPYRENKNLTGTARYASISAHLGSEQSRRDDLEAVGYVLMYFCRGGTLPWQGIKANTKQEKYHKIMEKKMSTPVEVLCKGYPSEFATYLHYCRSLRFEDRPDYAYLKRLFRDLYIKEGYDDSDREFDWTVKLSSRSLGPPSSRAQHVLLSQDTRTRGKRETDRPVAARSGDRERGIHFSNGNVGNPSMATNPGGLSVMVHERTSLVDQGDRGSRETSTRKEDAKDGRWPGGRFSCLPLLCRRSPTKA
For B1, the “kinase activity with peptide substrate” value in data set [1], in data set [2], in data set [3], in data set [4], in [7] and in data set [9] was “failed to show concentration dependent kinase activity” in each case. Also, the Km(app) was found to be 79 µM in data set [5]; 12 µM in the data set with β-casein (Sigma), P02666; 15 µM in data set [6]; 5 µM in data set [8]. Besides, the Vmax(app) (nmole min^-1 mg^-1) in data set [5] came out at 37; in the data set with β-casein (Sigma), P02666, 16; in [6] it was 8; in data set [8], 12.

B2: native EtCKIα, partially purified from Eimeria tenella unsporulated oocysts (protein)
chain: MDVRVGGKYRLGRKIGSGSFGDIYLGTNISTGDEVAIKLESVRSRHPQLIYESKLYKILTGGIGIPTLYWYGIEGDYNVMIIELLGPSLEDLFSICNRKLSLKTVLMLADQMLNRIEFVHSRHFIHRDIKPDNFLIGRGKKMSIVFAIDFGLAKKYRDPRTQSHIPYREGKNLTGTARYASVNTHLGIEQSRRDDLEALGYVLMYFNRGSLPWQGLKATTKKDKYDKIMEKKMSTPIEVLCKQFPFEFITYLNYCRSLRFEDRPDYSYLRRLFKDLFFREGYQYDFIFDWTFLHAERERERQRRSMVNQGAESGNQWRRDASGRDPLGRLPQLEP
In the case of B2, in data set [5], the “Vmax relative to the α-casein substrate” value was “the phosphopeptide yielded a much higher Vmax (2.5× greater activity) than the α-casein substrate”.

For the origin of these results see patent US20080280313.
